Key:
[1] = target: ChrC-His6, Fe superoxide dismutase ChrC of TnOtchr from Ochrobactrum tritici 5bvl1 (Ochrobactrum tritici 5bvl1); assay: cross-linking; 10 ug purified enzyme with 0.1 % glutaraldehyde in 20 mM NaCl, 10 mM KCl, 2 mM DTT, 20 mM Hepes pH 7.5; 5, 15 and 30 min at 30 °C; 12 % SDS-PAGE
[2] = target: ChrC-His6, Fe superoxide dismutase ChrC of TnOtchr from Ochrobactrum tritici 5bvl1 (Ochrobactrum tritici 5bvl1); assay: SEC; Superdex 200 10/300 GL, 0.5 mL/min, 50 mM Tris-HCl, 0.15 M NaCl, pH 7.4; mass from a curve of standard proteins
[3] = target: ChrF-His6, Mn superoxide dismutase ChrF of TnOtchr from Ochrobactrum tritici 5bvl1 (Ochrobactrum tritici 5bvl1); assay: cross-linking; 10 ug purified enzyme with 0.1 % glutaraldehyde in 20 mM NaCl, 10 mM KCl, 2 mM DTT, 20 mM Hepes pH 7.5; 5, 15 and 30 min at 30 °C; 12 % SDS-PAGE
[4] = target: ChrF-His6, Mn superoxide dismutase ChrF of TnOtchr from Ochrobactrum tritici 5bvl1 (Ochrobactrum tritici 5bvl1); assay: SEC; Superdex 200 10/300 GL, 0.5 mL/min, 50 mM Tris-HCl, 0.15 M NaCl, pH 7.4; mass from a curve of standard proteins

Row | stoichiometry N [1] | stoichiometry N [2] | stoichiometry N [3] | stoichiometry N [4] | Substance
1 | 4 | 4 | – | – | ChrC-His6, Fe superoxide dismutase ChrC of TnOtchr from Ochrobactrum tritici 5bvl1 (enzyme)
2 | – | – | 2 | 2 | ChrF-His6, Mn superoxide dismutase ChrF of TnOtchr from Ochrobactrum tritici 5bvl1 (enzyme)

From paper PMC4779226
